Laboratory results: the RNAGym collection of RNA variant scans (doi:10.1073/pnas.2313332121)

B1: TPR t1 (parent)
chain: GACCAAUCUGCCCUCAGAGCUCGAGAACAUCUUCGGAUGCAGAGGAGGCAGGCUUCGGUGGCGCGAUAGCGCCAACGUCCUCAACCUCCAAUGCAUCCCACCACAUGAUGAUGCCUGAAGAGCCUUGGUUUUUUG

Variants of: B1
Test: polymerase ribozyme fitness, log enrichment relative to wild type (log ratio); higher = more active; in vitro selection for triplet polymerase activity
Procedure, shortened: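 Libraries of mutants in each subunit of a heterodimeric triplet polymerase ribozyme were generated by PCR and transcribed. In triplicate, each went through one in vitro selection round: annealing with biotinylated primer, partner subunit and triplets; frozen incubation at −7 °C; gel excision of extended constructs; streptavidin-bead capture; RT-PCR. Fitness, taken from Illumina sequencing of input and output libraries, is the logarithm of a genotype's enrichment over wild-type enrichment, averaged across replicates with inverse-variance weights. The logarithm is base 2, and genotypes needed ≥10 input reads and ≥1 read per output to be kept.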

Row | Variant | polymerase ribozyme fitness (log ratio)
1 | A6G C8A | -0.14
2 | A6U G39A A74C A91U | -2.33
3 | U7A G52A A111C | 0.419
4 | A5U C115U | -1.6
5 | A6G G48A G69A U129G | -5.25
6 | A6U G51U C70U C80U G93U | -5.12
7 | A5U G127U | -2.48
8 | A6C C15G U55G C94G C124G G127A | -3.17
9 | U7A G57U | -0.259
10 | A6U A18G G93A | -5.43
11 | A6G C49U G60C G135U | -2.21
12 | U7A C53U C70U | -0.899
13 | U7A A50U C64U | -0.349
14 | A5U C80G | -5.2
15 | A5U G10A C15A C70U C79A C94U C99U C124U | -7.66
16 | A6U G42C C73G | -2.29
17 | A6C C12U A46G A118G | 0.142
18 | A6G C97U U112A | 1.48
19 | A6U G71U C82G | -0.9
20 | A6U A16U C40G C56A | -3.22
21 | A6C C11U C49A C101A | -2.17

Row | Variant | polymerase ribozyme fitness (log ratio)
22 | A6G U54C A66G C80U | -2.2
23 | A6C A18C G60U C82G G127U | -5.44
24 | A6U C8G C73G C88A U92G C98A G113U | -6.38
25 | U7A A66U C98U | -1.89
26 | A6U C70A A91G | -2.94
27 | A6U C62A | -1.01
28 | A5U G44A A46U C56U U126G U133A | -2.99
29 | A6C G52U G63A | -0.684
30 | U7A G63C U81G | -4.09
31 | A6G C56A G69U C104U | -0.478
32 | A6C C73G | -0.957
33 | A6U G10C C12A U87A | -0.928
34 | A5U G44C | -1.05
35 | A6G C13U C22U G44C | -5.6
36 | A6G A66U C73G A75U C80U G120U U129G | -4.99
37 | A6G A37U C72A C73U G117U C124A | -0.937
38 | A6U A27U A46C G48A C53G C79G C82G G110C | -6.9
39 | A6C G57A C62G G120C | -4.68
40 | A6U C40A C56G A84G C104U | -2.66
41 | A6G U7G A37G G48U | 0.0457
42 | A6C G47A C86U U133G | -0.584

Row | Variant | polymerase ribozyme fitness (log ratio)
43 | U7A C34A C97U | -1.97
44 | A5U G36C | -1.42
45 | A6G A46C C49A C53A U55C G127U | -3.07
46 | A6C G35A | -4.12
47 | A6C G113A | -1.23
48 | A6U C28G C72U C102U A103C | -7.04
49 | A6G C11G G57U | 0.178
50 | A6U C11A C12U A37G G61A | -1.24
51 | A6U G10U C13G C40U A41C G63U U78C C79A A121G | -4.13
52 | A6C C12A U54G | -1.08
53 | U7A C56U G120U | 0.935
54 | A6U G23U | -4.65
55 | A6C C82U | -0.547
56 | U7A C64A | -4.63
57 | A6U G17C | -4.25
58 | A5U U9A | -0.246
59 | A6U C40U C56U G69C A121C | -6.3
60 | U7A C12A A90G | -0.303
61 | A6U C12U C72U A83C G127U | -0.0511
62 | A6U C72U C76G C98U | -1.11
63 | A6U G17U U112A G120A | -3.9

Row | Variant | polymerase ribozyme fitness (log ratio)
64 | A6C A26G U38G C53G | -5.37
65 | U7A G69U C98U | -0.115
66 | U7A C13G U32C U38G | -1.31
67 | A6G A41U C70U C124A | -0.611
68 | A6U C98A | -3.74
69 | A6U C53U G69U G128C | -0.945
70 | A5U G19A C40A A111G | -2.76
71 | A6C C15U C70U C101A U130G | -4.08
72 | A6G G71C A118U | -0.254
73 | A6C G44A G61U | -0.646
74 | A6U C102A C123G | -0.023
75 | A5U U131A | -2.48
76 | U7A A43U | -1.13
77 | A6G G69A C115A G120A | -1.22
78 | A6G C62U U129C | -0.185
79 | A6U G17U C40U C76G | -3.15
80 | A6U C15A G113A | -4.98
81 | A6G C34A | -2.05
82 | A6G C8G U30C A41G G60U | -3.67
83 | A6C G47A C123U U125A | -0.223
84 | A5U U55G A95U U129G | -1.03
